T1: ligated CheA P1(Q153)/(S154C)P2–5 produced by expressed protein ligation (EPL) (E. coli, UniProt P07363 1-654, S154C)
T1 construct: CheA, E. coli, amplified from genomic DNA of strain BL21; Inteins and CBD of both fragments were removed before ligation; also called ligation product of P1/P2–5; source: fragments expressed in E. coli BL21-CodonPlus (DE3)-RP, purified, ligated in vitro (EPL)
T1 sequence (looked up): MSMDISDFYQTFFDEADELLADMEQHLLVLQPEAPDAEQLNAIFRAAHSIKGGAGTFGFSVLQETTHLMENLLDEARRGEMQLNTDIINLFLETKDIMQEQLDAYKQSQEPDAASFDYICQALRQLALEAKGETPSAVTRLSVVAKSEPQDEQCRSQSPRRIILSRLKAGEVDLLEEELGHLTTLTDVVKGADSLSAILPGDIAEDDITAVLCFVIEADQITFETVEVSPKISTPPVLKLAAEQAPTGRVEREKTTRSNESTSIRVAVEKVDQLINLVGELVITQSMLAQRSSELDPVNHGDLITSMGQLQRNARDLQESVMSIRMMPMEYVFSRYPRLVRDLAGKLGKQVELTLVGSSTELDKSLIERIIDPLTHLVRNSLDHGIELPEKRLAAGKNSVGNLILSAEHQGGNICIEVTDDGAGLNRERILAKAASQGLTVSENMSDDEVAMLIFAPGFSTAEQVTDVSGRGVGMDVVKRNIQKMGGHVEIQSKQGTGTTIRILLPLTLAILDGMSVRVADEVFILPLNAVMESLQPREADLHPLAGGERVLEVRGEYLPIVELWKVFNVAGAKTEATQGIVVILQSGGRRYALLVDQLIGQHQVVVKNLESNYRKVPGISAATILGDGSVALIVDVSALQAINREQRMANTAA

B1: ligated CheA P1(Q153G)/(S154C)P2–5 produced by expressed protein ligation (EPL) (enzyme, E. coli, UniProt P07363 1-654, looked up)
chain: MSMDISDFYQTFFDEADELLADMEQHLLVLQPEAPDAEQLNAIFRAAHSIKGGAGTFGFSVLQETTHLMENLLDEARRGEMQLNTDIINLFLETKDIMQEQLDAYKQSQEPDAASFDYICQALRQLALEAKGETPSAVTRLSVVAKSEPQDEGCRSQSPRRIILSRLKAGEVDLLEEELGHLTTLTDVVKGADSLSAILPGDIAEDDITAVLCFVIEADQITFETVEVSPKISTPPVLKLAAEQAPTGRVEREKTTRSNESTSIRVAVEKVDQLINLVGELVITQSMLAQRSSELDPVNHGDLITSMGQLQRNARDLQESVMSIRMMPMEYVFSRYPRLVRDLAGKLGKQVELTLVGSSTELDKSLIERIIDPLTHLVRNSLDHGIELPEKRLAAGKNSVGNLILSAEHQGGNICIEVTDDGAGLNRERILAKAASQGLTVSENMSDDEVAMLIFAPGFSTAEQVTDVSGRGVGMDVVKRNIQKMGGHVEIQSKQGTGTTIRILLPLTLAILDGMSVRVADEVFILPLNAVMESLQPREADLHPLAGGERVLEVRGEYLPIVELWKVFNVAGAKTEATQGIVVILQSGGRRYALLVDQLIGQHQVVVKNLESNYRKVPGISAATILGDGSVALIVDVSALQAINREQRMANTAA
notes: CheA, E. coli, amplified from genomic DNA of strain BL21; P1 fragment was made as a C-terminal Mxe GyrA intein-CBD fusion and P2–5 as an N-terminal CBD-Ssp DnaB intein fusion (pTWIN1); both inteins were removed before ligation; NMR samples were [2H,15N]-labeled in P1; UniProt entry is of strain K-12; the DNA was from strain BL21; also called Q153G/S154C dimer; ligated product
B2: ligated CheA P12^(2)/^(5)P3–5 produced by protein trans-splicing (PTS) in vivo (enzyme, E. coli)
chain: MSMDISDFYQTFFDEADELLADMEQHLLVLQPEAPDAEQLNAIFRAAHSIKGGAGTFGFSVLQETTHLMENLLDEARRGEMQLNTDIINLFLETKDIMQEQLDAYKQSQEPDAASFDYICQALRQLALEAKGETPSAVTRLSVVAKSEPQDEQSRSQSPRRIILSRLKAGEVDLLEEELGHLTTLTDVVKGADSLSAILPGDIAEDDITAVLCFVIEADQITFETVEVSPKISTPPVLGSCFNGTPTGRVEREKTTRSNESTSIRVAVEKVDQLINLVGELVITQSMLAQRSSELDPVNHGDLITSMGQLQRNARDLQESVMSIRMMPMEYVFSRYPRLVRDLAGKLGKQVELTLVGSSTELDKSLIERIIDPLTHLVRNSLDHGIELPEKRLAAGKNSVGNLILSAEHQGGNICIEVTDDGAGLNRERILAKAASQGLTVSENMSDDEVAMLIFAPGFSTAEQVTDVSGRGVGMDVVKRNIQKMGGHVEIQSKQGTGTTIRILLPLTLAILDGMSVRVADEVFILPLNAVMESLQPREADLHPLAGGERVLEVRGEYLPIVELWKVFNVAGAKTEATQGIVVILQSGGRRYALLVDQLIGQHQVVVKNLESNYRKVPGISAATILGDGSVALIVDVSALQAINREQRMANTAA
notes: CheA P12 domains, E. coli, amplified from genomic DNA of strain BL21, residues 1–238; stands instead of KLAAEQA of the P2-P3 linker; CheA P3–5 domains, E. coli, amplified from genomic DNA of strain BL21, residues 246–654; H6-Smt3 was removed with Ulp1; results and methods give a different order of SEC and tag removal, so its state at the SEC is open; P12 part [2H,15N]-labeled in the NMR sample; …
B3: (S154C)P2–5 domains of CheA (domain or fragment, E. coli, UniProt P07363 154-654, looked up)
chain: CRSQSPRRIILSRLKAGEVDLLEEELGHLTTLTDVVKGADSLSAILPGDIAEDDITAVLCFVIEADQITFETVEVSPKISTPPVLKLAAEQAPTGRVEREKTTRSNESTSIRVAVEKVDQLINLVGELVITQSMLAQRSSELDPVNHGDLITSMGQLQRNARDLQESVMSIRMMPMEYVFSRYPRLVRDLAGKLGKQVELTLVGSSTELDKSLIERIIDPLTHLVRNSLDHGIELPEKRLAAGKNSVGNLILSAEHQGGNICIEVTDDGAGLNRERILAKAASQGLTVSENMSDDEVAMLIFAPGFSTAEQVTDVSGRGVGMDVVKRNIQKMGGHVEIQSKQGTGTTIRILLPLTLAILDGMSVRVADEVFILPLNAVMESLQPREADLHPLAGGERVLEVRGEYLPIVELWKVFNVAGAKTEATQGIVVILQSGGRRYALLVDQLIGQHQVVVKNLESNYRKVPGISAATILGDGSVALIVDVSALQAINREQRMANTAA
notes: CheA P2–5 domains, E. coli, amplified from genomic DNA of strain BL21, residues S154 to A654 with cysteine at the N-terminus; also called unreacted (S154C)P2–5; unreacted P2–5; source: E. coli BL21-CodonPlus (DE3)-RP, purified (chitin beads, intein cleavage); not shown: CBD-Ssp DnaB intein, N-terminal, cleaved

Experiments:
[1] = target: the molecule itself; test: SEC; HiLoad 16/60 Superdex 200 prep grade, TEDG buffer (50 mM Tris pH 7.5, 0.5 mM EDTA, 2 mM DTT, 10% glycerol) with 150 mM NaCl; elution volume compared with immunoglobulin G (158 kDa)
[2] = target: B1; test: co-purification (SEC, then separation by anion exchange chromatography); EPL reaction mixture of purified fragments; Superdex 200, then ResourceQ in TEDG buffer with a 0–500 mM NaCl gradient; heterodimer separated from the ligated homodimer; conditions: both partners purified
[3] = target: T1, ligated CheA P1(Q153)/(S154C)P2–5 …; test: as above; conditions: both partners purified

| Binder | stoichiometry N [1] | binding result [2] | binding result [3] |
| --- | --- | --- | --- |
| B1 | 2 |  |  |
| B2 | 2 |  |  |
| B3 |  | binds | binds |

Source: paper PMC3405243, “Segmental isotopic labeling of a 140 kDa dimeric multi-domain protein CheA from Escherichia coli by expressed protein ligation and protein trans-splicing” (Journal of Biomolecular Nmr, 2012)
